Data taken from paper PMC2745997 (Nature neuroscience, 2009).
Blank lines part the entries; values can stand above or below the molecule they belong to.

Columns and labels:
UNC-5/HA (C. elegans) = experiment: LUMIER
RCM-HA (in Cos-7 cells) = RCM-HA (in Cos-7 cells) ( (mammalian), UniProt O08747 41-931); experiment: radioligand binding
Chain of RCM-HA (in Cos-7 cells) (O08747 41-931): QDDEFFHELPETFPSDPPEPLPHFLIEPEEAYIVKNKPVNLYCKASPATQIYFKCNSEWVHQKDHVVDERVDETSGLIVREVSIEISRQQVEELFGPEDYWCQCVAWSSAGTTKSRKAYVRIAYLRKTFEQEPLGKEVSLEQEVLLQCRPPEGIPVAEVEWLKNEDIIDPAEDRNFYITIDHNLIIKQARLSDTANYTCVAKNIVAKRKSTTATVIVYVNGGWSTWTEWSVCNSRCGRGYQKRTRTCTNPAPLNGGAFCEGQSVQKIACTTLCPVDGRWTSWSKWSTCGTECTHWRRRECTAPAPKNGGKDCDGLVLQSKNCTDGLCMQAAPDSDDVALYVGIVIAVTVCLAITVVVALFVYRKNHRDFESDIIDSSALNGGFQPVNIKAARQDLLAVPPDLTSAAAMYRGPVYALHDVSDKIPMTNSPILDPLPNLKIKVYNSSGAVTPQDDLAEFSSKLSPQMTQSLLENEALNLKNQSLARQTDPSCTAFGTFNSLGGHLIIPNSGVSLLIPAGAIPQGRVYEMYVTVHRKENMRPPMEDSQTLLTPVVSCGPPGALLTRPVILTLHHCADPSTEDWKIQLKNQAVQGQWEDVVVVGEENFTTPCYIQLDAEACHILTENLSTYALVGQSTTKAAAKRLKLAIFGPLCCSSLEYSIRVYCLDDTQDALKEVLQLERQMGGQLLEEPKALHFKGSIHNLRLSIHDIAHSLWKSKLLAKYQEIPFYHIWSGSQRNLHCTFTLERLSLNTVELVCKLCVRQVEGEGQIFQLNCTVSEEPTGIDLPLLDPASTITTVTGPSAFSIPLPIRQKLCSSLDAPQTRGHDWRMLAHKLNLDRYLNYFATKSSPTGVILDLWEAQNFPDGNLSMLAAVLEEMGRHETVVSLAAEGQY

Chain of UNC-5/HA (C. elegans) (Q26261 whole entry): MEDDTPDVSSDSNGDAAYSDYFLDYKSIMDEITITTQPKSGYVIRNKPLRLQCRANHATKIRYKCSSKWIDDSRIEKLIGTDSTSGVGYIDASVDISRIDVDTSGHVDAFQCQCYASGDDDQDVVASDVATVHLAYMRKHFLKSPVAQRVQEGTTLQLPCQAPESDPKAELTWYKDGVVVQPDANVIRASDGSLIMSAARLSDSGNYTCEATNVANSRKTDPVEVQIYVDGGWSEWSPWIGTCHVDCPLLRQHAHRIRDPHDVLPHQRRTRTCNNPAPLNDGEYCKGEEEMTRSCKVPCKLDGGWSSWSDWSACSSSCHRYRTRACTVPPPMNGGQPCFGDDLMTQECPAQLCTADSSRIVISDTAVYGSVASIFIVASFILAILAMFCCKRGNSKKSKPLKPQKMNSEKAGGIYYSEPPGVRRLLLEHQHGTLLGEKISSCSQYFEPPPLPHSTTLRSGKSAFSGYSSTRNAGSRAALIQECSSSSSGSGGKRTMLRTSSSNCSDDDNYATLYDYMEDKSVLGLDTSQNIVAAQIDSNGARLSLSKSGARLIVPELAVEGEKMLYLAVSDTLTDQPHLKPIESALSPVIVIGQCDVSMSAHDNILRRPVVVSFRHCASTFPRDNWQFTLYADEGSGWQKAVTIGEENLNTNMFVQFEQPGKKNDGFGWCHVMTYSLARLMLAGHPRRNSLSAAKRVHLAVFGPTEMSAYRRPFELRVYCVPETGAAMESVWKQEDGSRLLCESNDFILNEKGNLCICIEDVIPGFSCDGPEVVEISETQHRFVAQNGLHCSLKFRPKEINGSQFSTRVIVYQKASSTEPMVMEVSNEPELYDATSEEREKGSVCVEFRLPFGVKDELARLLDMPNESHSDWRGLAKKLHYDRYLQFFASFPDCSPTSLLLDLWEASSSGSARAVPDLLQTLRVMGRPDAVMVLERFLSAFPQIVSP

fold increase in luciferase activity over mock transfected cells (UNC-5/HA (C. elegans)): 7 fold
Molecule: Gluc-UNC-129 (from UniProt G5EBY8 19-407) (ligand)

Kd (RCM-HA (in Cos-7 cells)): 4 nM
B1: 125I-BMP7 (ligand, UniProt P18075 293-431, looked up)
chain: STGSKQRSQNRSKTPKNQEALRMANVAENSSSDQRQACKKHELYVSFRDLGWQDWIIAPEGYAAYYCEGECAFPLNSYMNATNHAIVQTLVHFINPETVPKPCCAPTQLNAISVLYFDDSSNVILKKYRNMVVRACGCH
modifications: 125I label (iodinated)
